Experimental findings from US20220291215A1 (published 2022) are described below.

Common to all, as to test: multimer staining
Experiment [1] has as its target T1, MAGE-A2 peptide on HLA-DPA1*01:03 / HLA-DPB1*04:01 (human).
T1 peptide: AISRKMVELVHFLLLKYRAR

In experiment [2] the target is T2, HSD17B12 peptide on HLA-DPA1*01:03 / HLA-DPB1*04:01 (human).
T2 peptide: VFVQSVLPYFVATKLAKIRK

Experiment [3] concerns the target T3, LY6K peptide on HLA-DRA*01:01 / HLA-DRB1*01:01 (human).
T3 peptide: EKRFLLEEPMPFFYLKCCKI

Experiment [4] concerns the target T4, LGSN peptide on HLA-DPA1*01:03 / HLA-DPB1*04:01 (human).
T4 peptide: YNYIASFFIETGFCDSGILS

For experiment [5], the target named is T5, CCND1 peptide on HLA-DPA1*01:03 / HLA-DPB1*04:01 (human).
T5 peptide: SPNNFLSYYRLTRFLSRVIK

The target in experiment [6] is T6, MUC5AC peptide on HLA-DPA1*01:03 / HLA-DPB1*04:01 (human).
T6 peptide: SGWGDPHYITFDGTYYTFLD

B1: 06-MAGE-A2108-127 (TCR)
alpha TRAV19*01 TRAJ40*01 CDR3: CALSVGTYKYIF
beta TRBV7-9*01 TRBJ2-5*01 CDR3: CASSPGTGGRETQYF
Regarding B1, the binding result in experiment [1] is recorded as “recognises”.

B2: 05-HSD17B12225-244 (TCR)
alpha TRAV22*01 TRAJ18*01 CDR3: CAVAPYDRGSTLGRLYF
beta TRBV19*01 TRBJ2-5*01 CDR3: CASSTGQGLETQYF
Turning to B2, the binding result in experiment [2] is given as “recognises”.

B3: DR1-08-LY6K99-118 (TCR)
alpha TRAV38-2/DV8*01 TRAJ52*01 CDR3: CAYRSFLNAGGTSYGKLTF
beta TRBV20-1*01 TRBJ1-6*01 CDR3: CAASRESKWSSYNSPLHF
For the molecule B3, the binding result in experiment [3] is “recognises”.

B4: 05-LGSN296-315 (TCR)
alpha TRAV9-2*03 TRAJ32*01 CDR3: CALSDLSYGGATNKLIF
beta TRBV27*01 TRBJ1-5*01 CDR3: CASSKGQGLGNQPQHF
Regarding B4, the binding result in experiment [4] is recorded as “recognises”.

B5: 03-CCND1219-238 (TCR)
alpha TRAV2*01 TRAJ21*01 CDR3: CAVCTLYNFNKFYF
beta TRBV6-5*01 TRBJ2-1*01 CDR3: CASLTDNNEQFF
For B5, the binding result in experiment [5] is recorded as “recognises”.

B6: 03-MAGE-A2108-127 (TCR)
alpha TRAV36/DV7*04 TRAJ40*01 CDR3: CAVEVNSGTYKYIF
beta TRBV2*01 TRBJ1-1*01 CDR3: CASRRDLAAFF
In the case of B6, the binding result in experiment [1] was “recognises”.

B7: 05-MUC5AC4922-4941 (TCR)
Valpha: QTVTQSQPEMSVQEAETVTLSCTYDTSESNYYLFWYKQPPSRQMILVIRQEAYKQQNATENRFSVNFQKAAKSFSLKISDSQLGDTAMYFCAFMKRAETSGSRLTFGEGTQLTVNP
beta TRBV6-2*01 TRBJ2-5*01 CDR3: CASSYWPTRETQYF
As to B7, the binding result in experiment [6] is “recognises”.
